{"source": "paper PMC7790537", "about": "(PLoS ONE, 2021)", "binders": {"B1": {"name": "F11 IgA1 polymer (antibody, V domains shown)", "VH": "QVQLVQSGAEVKRPGSSVRVSCRTSGGSFTSFAISWVRQAPGQGLEWMGRITRILGVPNYAQKFQGRVTITADMPTTTAYLDLTNLRSEDTAVYYCARDSGTSHGDFDYWGQGTLVTVSS", "VL": "EIVLTQSPVTLSLSPGERATLSCRASQNVINSLVWYQQKPGQAPRLLIYGASNRATGIPARFRGSGSGTDFTLTIDSLEPEDIAVYYCQQRGTWLWSFGQGTKVEIK"}, "B2": {"name": "F11 IgA2m2 monomer (antibody, V domains shown)", "VH": "B1 VH", "VL": "B1 VL"}, "B3": {"name": "F11 IgA2m2 polymer (antibody, V domains shown)", "VH": "B1 VH", "VL": "B1 VL"}, "B4": {"name": "F11 IgA1 monomer (antibody, V domains shown)", "VH": "B1 VH", "VL": "B1 VL"}}}
{"biological_target": "recombinant trimeric HA of A/New Caledonia/20/1999 (H1N1) (Influenza A virus A/New …, UniProt Q6WG00)", "test": "cell-based or functional assay", "units": {"HI activity, minimum HI concentration, NC20 virus": "µg/mL", "NI activity, EC50 (NI-ELLA), NC20 virus": "µg/mL", "NT activity, minimum virus-neutralizing concentration, NC20 virus": "µg/mL"}}
{"binder": "B1", "HI activity, minimum HI concentration, NC20 virus": 62.5, "NI activity, EC50 (NI-ELLA), NC20 virus": 0.106, "NT activity, minimum virus-neutralizing concentration, NC20 virus": 15.8}
{"binder": "B2", "HI activity, minimum HI concentration, NC20 virus": 31.3, "NI activity, EC50 (NI-ELLA), NC20 virus": 0.0617}
{"binder": "B3", "NI activity, EC50 (NI-ELLA), NC20 virus": 0.0162, "NT activity, minimum virus-neutralizing concentration, NC20 virus": 5.57}
{"binder": "B4", "HI activity, minimum HI concentration, NC20 virus": 62.5, "NI activity, EC50 (NI-ELLA), NC20 virus": 0.148, "NT activity, minimum virus-neutralizing concentration, NC20 virus": 28.1}
